# Assay results from article PMC10960022, “An ARF gene mutation creates flint kernel architecture in dent maize”.
# T1: ARFTF17 (Zea mays (B73?)) (UniProt D9HNU4)
# T1 sequence: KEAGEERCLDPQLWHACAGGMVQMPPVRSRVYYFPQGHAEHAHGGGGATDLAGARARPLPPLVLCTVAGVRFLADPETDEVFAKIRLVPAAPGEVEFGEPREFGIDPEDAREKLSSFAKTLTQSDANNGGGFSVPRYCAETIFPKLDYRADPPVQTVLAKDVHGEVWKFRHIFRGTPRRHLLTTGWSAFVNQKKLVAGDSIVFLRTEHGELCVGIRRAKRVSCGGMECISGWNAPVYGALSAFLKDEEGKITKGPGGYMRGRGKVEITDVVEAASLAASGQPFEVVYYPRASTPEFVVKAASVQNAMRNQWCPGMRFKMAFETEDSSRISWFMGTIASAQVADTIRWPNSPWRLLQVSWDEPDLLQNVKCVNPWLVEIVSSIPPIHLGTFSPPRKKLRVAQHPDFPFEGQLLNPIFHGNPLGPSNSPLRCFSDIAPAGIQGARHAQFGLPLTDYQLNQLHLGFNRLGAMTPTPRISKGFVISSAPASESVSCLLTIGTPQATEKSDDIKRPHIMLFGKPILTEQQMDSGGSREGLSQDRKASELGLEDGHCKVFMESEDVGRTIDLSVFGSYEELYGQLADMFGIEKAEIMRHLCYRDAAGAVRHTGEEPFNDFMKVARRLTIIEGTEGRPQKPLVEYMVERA
# T2: ARFTF17 (Zea mays, UniProt D9HNU4 2-644)
# T2 sequence: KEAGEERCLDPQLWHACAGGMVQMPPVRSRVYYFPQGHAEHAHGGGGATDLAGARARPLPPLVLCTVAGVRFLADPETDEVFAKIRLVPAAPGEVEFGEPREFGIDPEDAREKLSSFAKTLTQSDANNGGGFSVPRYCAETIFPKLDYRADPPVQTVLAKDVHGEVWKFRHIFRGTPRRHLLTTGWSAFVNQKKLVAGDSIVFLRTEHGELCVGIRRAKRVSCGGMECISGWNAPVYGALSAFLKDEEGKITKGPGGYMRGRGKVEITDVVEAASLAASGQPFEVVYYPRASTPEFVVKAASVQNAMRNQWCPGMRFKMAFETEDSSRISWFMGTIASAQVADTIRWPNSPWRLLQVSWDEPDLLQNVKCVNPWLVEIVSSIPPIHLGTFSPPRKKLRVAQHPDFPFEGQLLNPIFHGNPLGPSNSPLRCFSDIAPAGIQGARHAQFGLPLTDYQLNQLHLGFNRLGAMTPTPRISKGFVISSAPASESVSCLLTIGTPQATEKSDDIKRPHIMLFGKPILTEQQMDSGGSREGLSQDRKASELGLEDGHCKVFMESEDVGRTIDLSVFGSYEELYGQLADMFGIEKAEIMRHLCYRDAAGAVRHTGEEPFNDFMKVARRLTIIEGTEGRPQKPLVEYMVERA
# Experiments:
# [1] = target: T1, ARFTF17 (Zea mays (B73?)); assay: EMSA; conditions: 20 mM Tris-HCl pH 7.9, 40 mM KCl, 2 mM MgCl2, 0.2 mM DTT, 5% glycerol, 0.04 mg/mL BSA, 1 ug salmon sperm DNA in 20 uL, room temperature 30 min; 0.05 pmol …
# ARFTF17 = target: T2, ARFTF17; assay: EMSA; 20 mM Tris-HCl pH 7.9, 40 mM KCl, 2 mM MgCl2, 0.2 mM DTT, 5% glycerol, 0.04 mg/mL BSA, 1 ug salmon sperm DNA in 20 uL, room temperature 30 min; 0.05 pmol probe, 100 ng protein; native 4% PAGE at 4 C; conditions: protein: recombinant; tags: His (pET30a); chain copies: 2; blunt
Molecule,binding [1],binding result (ARFTF17)
AATGCACAATCAAATAAATACTCAACATGATGCATATTTCTATTTATATATTTTTATAGTAATTGTTTAATCCTTTTGGTTAAATAACATGCTTCGAAATATGCCATACAACAATTTTCAGTTTTGAAGAAAT (double strand) [PIN1-P],no binding,
P3(2x) (dsDNA) DNA 1: AAGGGAGACAACTTGTCTCCCAAAGGGAGACAACTTGTCTCCCAAAGGGAGACAACTTGTCTCCCA DNA 2: TGGGAGACAAGTTGTCTCCCTTTGGGAGACAAGTTGTCTCCCTTTGGGAGACAAGTTGTCTCCCTT,,no binding
